What is called stoichiometry N is the number of molecules, sites or subunits per partner or assembly.

In assay [1] the target is E. coli expressed recombinant PKM2 (rPKM2) (human) (UniProt P14618). The assay is described as follows: SEC. In general terms: Size exclusion chromatography separates by hydrodynamic size, large species first.
Assay [2] concerns the target Pyruvate kinase isoform M2 (PKM2), endogenous (human (endogenous in SW620 and SW480)) (UniProt P14618). The assay can be described thus: SEC.

E. coli expressed recombinant PKM2 (rPKM2), P14618 1-531 (enzyme; other documents disagree on this pair), sequence (P14618 whole entry): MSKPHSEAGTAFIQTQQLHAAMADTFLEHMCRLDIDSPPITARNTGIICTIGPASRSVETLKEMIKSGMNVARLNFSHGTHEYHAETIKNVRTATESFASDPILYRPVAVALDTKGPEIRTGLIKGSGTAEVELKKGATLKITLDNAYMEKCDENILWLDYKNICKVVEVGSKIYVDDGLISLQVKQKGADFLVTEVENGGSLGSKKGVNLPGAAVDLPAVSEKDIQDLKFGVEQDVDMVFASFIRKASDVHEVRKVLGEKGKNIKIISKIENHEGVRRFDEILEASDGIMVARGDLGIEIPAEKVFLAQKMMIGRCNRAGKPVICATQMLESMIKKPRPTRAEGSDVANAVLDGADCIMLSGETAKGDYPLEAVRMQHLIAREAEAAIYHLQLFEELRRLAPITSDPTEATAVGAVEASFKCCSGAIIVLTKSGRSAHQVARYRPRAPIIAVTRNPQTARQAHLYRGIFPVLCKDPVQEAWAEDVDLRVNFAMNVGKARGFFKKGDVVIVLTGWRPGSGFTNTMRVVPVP
Pyruvate kinase isoform M2 (PKM2), endogenous, P14618 1-531 (enzyme; other documents disagree on this pair), sequence (P14618 whole entry, canonical isoform): as the sequence (P14618 whole entry) above

In the case of “E. coli expressed recombinant PKM2 (rPKM2), P14618 1-531 (enzyme; other documents disagree on this pair)”, the stoichiometry N in assay [1] came to 2.
“Pyruvate kinase isoform M2 (PKM2), endogenous, P14618 1-531 (enzyme; other documents disagree on this pair)”: the stoichiometry N in assay [2] was 2.
